Measurements reported in the nanobody polyreactivity screen of Harvey et al. (2022).

Assay: yeast display, Sf9 membrane polyspecificity reagent, FACS + sequencing; frameworks hold sequencing errors
Summary of the method: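 Using colony PCR, genes from sorted yeast display clones were amplified, then sequenced on MiSeq at 2 × 250 and filtered by CDR length. The clones had been stained with 10% biotinylated, detergent-solubilized Sf9 membrane reagent for 1 hour at 4 °C and sorted by FACS into low and high (top ~1%) gates on anti-HA and streptavidin fluorescence. Polyreactivity labels come from the gate of origin.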

| Sequence | polyreactivity (PSR sort gate) |
| --- | --- |
| QVQLVESGGGLVQAGGSLRLSCAASGSTFPYYAMGWYRQAPGKERELVAAISWRGTRTYYADSVKGRFTISRDNAKNTVYLQMNSLKPEDTAVYYCNAYHTPEYQEGGYYWGQGTQVTVSS | high polyreactivity |
| QVQLVESGGGLVQAGGSLRLSCAPSGITFVKNVMGWYRQAPGKEREFVAAISTIGARTYYADSVKGRFTISRDNAKNTVYLQMNSLIPEDTAVYYCNAYKSGYGQEYDYWGQGTQVTVSS | high polyreactivity |
| QVQHVESGGGLVQAGGSRRLTCAASGYTFYKYAMGWYRQAPGKERELVAAISSSGGSTYYADSVKGRFTISRDNAKNTGYLHMNSLKPVDTAVYYCAAFVYSNDYDYWGQGTQVTVSS | high polyreactivity |
| QVQLVESGGGLVQAGGSLRLSCAASGRTFFRNAMGWYRQAPGKERELVAAISKRGGSTRYADSVKGRFTISRDNAKNTAYLQMNSLQPEDTAVYYCAADSRLEYSHATLYYCGQGTQVTVSS | high polyreactivity |
| QVQLVESGGGLVQAGGSLRLSCAPSRSTFWRYAMGWYRQAPGKERELFARISWSAGSTYYADSVKGRFTISRDNAKNTVYLQMNRLKPEDSAVYYCAAQPYKYSGRYQSKPYLLLYDYWGQGTQVTVSS | high polyreactivity |
| QVKLVESGGGLVQSGGSLRLTSAASGSTFPRYAMGWYRQAPGKEREFVAVIWSGGSTYYADSVKGRLTISRDNAKNTVYLQMNSLKPEDTAVYYCAAEYHTLSLDSGYATHDYWGQGTQVTVSS | low polyreactivity |
| QVQLVDSGGGLVKAGGSLRLSCAASGSTFAYYAMGWYRQAPGKERELVAAISWNGGSTYYADSVKGRFTISRDNAKNTVYLQMNSLKPEDTAVYYCAAEVYDYTYVVTFLYDYWGQGTQVTVSS | high polyreactivity |
| QVQLVESGAGLVQAGGSLRLSCAASGSSSLYNAMGWYRQAPGKERELVAAISSGGSTNYADSVKGRFTISRENAKNNVYLQMNSLQPEDTAVYYCAAVTVRRVSCAQYKQYDYWGLGTQVTVSS | high polyreactivity |
| QVQLVESGGGLVQAGGSLRLSCAASGYIFWSYAMGWYRQAPGKERELVAAISAYGCRTYYADSVKGRFTISRDNAKTTVYLQMNSLKPEDTAVYYCNADTGNHAYWYYGEFYYYTYDYWGQGTQVTVSS | low polyreactivity |
| QVQLVESGGGLVQAGGSLRLSCAASGRIFGFYAMGWYRQAPGKERELVADITSGGSTNYADSVKGRFTISRDNAKNTVYLQMNSLKPEDTAVYYCNALSYVWYRYPGNWDEDDYWGQGTQVTVSS | low polyreactivity |
| QVQLVESGGGLVQAGGSLRLSCAASGSIVSYYAMGWYRKAPGKERELVAAISKSGGRTYYADSVKGRFTISRDNAKNTVYLQMNSLKPEDTAVYYCAAPATYKYEYWGQGTQVTVSS | high polyreactivity |
| QVQLVESGGGLVQAGGSLRLSCAASGSIFQWYAMGWYRQAPGKERELVAVISRGGRTNYADSVKGRFTISRDNAKNTVYLQMNSLKPEDTAVYYCAAAVWFERGFSYRWRYGYWGQGTQVTVSS | high polyreactivity |
| QVQLLESGGGLVQAGGSLRLSCAASGNTYPVNARGWYRQAPGKERDLVAAISRTGASTYYADSVKGRFTISRDNAKNTVYLQMNSLIPEDTAVYYCAKYLKTPHNRRRVEALGYWGQGTQVTVSS | high polyreactivity |
| QVQLVESGVRLVQAGGSLRLTCAASGNTFVAYAMGWYRQAPGKERDLVAGITRGGTTYYADSVKGRFTISRDNAKNSVYLQMNSLKPEDTAEYDCAARLGYRYNYWGQGTQVTVSS | high polyreactivity |
| QVQLVESGGGLVQAGGSLRLSCAASGITFDYNAMGWYRQAPGKERELVASINSGGNTNYADSVKGRFTISRDNAKNTVYLQMNSLKPEDTAVYYCATVSYYLYTRYDYWGQGTQVTVSS | low polyreactivity |
| QVQLVESGGGLVQAGGSLRLSCAASGITFAYYGMGWYRQAPGKERELVAAISWTGSSTYYADSVKGRFTISRDNAQNTVYLQMNSLKPEDTAVYYCAARQRYRYDYWGQGTQVTVSS | high polyreactivity |
| QVQLVESRGGLVQAGGSLRLSCASSGFTFSINAMGWYRQAPGNERELVASITWSGGRTYYADSVKGRFTISRDNAKNTVYLQMNSLKPEDTAVYYCAARSYGTSTYDYWGQGTQVTVSS | high polyreactivity |
| QVQLVESGGGLVQAGGSLRLSCAASGRTFRFYTMGWYRQAPGKERELVAAIYWRGSSTYYADSVKGRFTISRDNAKNTVYLQMNSLKPEDTAVYYFAKKSYANEYDYWGQGTQVTVSS | high polyreactivity |
| QVQLVESGGGLVQAGGSLRLSCAASGFIFYGNAMAWSRQAPGKEREFVAAINGRGVSTYYADSVKGRFTISRDNAKNSDYLQMNSLKPEDTAVYYCNKVYWGRGPLEYWGQGTQVTVSS | high polyreactivity |
| QVQLVESGGGLVQAGGSLRLSCAASGRTFDRNTMGWYRQAPGKERELVAAISSSGGSTYYADSVKGRFTISRDNAKNTVYLQMNSLKPEDTAVYYCAVLSRQYFRYGYDYWGQGTQVTVSS | high polyreactivity |
| QVQLVESGGGLVQAGGSLRLSCAASGRTFSPYAMGWYRQAPGKERELVAAISWIGGSTYYADSVKGRFTISRDNAKNTVYLQMNSLKPEDTAVYYCAADKSVFSDSHAVSMIYRYDYWGQGTQVTVSS | low polyreactivity |
| QVQLVESGGGLVQAGGSLRLSCAASGRTFGWYAMGWYRQAPGKERELVAAISLSGGSTYYADSVKGRFTISRDNAKNTVYLQMNSLKPEDTAVYYCNALILPTKMGYWGQGTQVTVSS | low polyreactivity |

| Sequence | polyreactivity (PSR sort gate) |
| --- | --- |
| QVQLVESGGGLVQAGGSLRLSCASSGLTFGGYTMGLSRQAPGKERELVAAITSGGSTYYADSVKGRFTISRDNAKNTVYLQMNSLKPEDTAVYYCAARVRGWPVSKFGYWGQGTQVTVSS | high polyreactivity |
| QVQLVESGGGLVQAGRSLRLSCAASGLIFYCYVMGWYRQAPRKERELVAGISRNSGSTYYADSVKGRFTISRDNAKNTVYLQMNSLKPEDTAVYYCAKAYYRRYAAPGYDYWGQVTQVTVSS | low polyreactivity |
| QVQLVESGGGLVQAGGSLRLSCAASGSTFFFNAMGWYRQAPGKERELVAGISSSGGSTHYADSVKGRFTISRDNAKNTVYLQMNSLKPEDTAVYYCNAQQYLPSEGDYWGQGTQVTVSS | low polyreactivity |
| QVQLVESGGGLVQAGGSLSLSCAASGSIFRSYAMGWYRQAPGKERELVAAITNGGSTYYADSVKGRFTISRDNAKNTVYLQMNSLKPEDTAVYYCAAARYTYWFYLVKKTGYYWGQGTQVTVSS | high polyreactivity |
| QVQLVESAGGLVQAGGSLRLSCAASGRTSDGYAMGWSRQAPGKERELVAGITEGGGDTYYADSVKGRFTISRDNAKNTVYLQMNSLKTEDTAVYYCAKDLRRYLSWWYRYPYDYWGQGTQVTVSS | low polyreactivity |
| QVHLVESGGGLVQAGGSLRLSCAASGRLLVLNDMGWYRPEPGKVMELVADITSGGSTYYADSVKGRFTISRDNAKKTDYLQMNSLKPEDPAVYYCAADWNTYPDYQQSYFVSYEYNYWGQGTQVTVSS | low polyreactivity |
| QVQLVESGGGLVQAGGSLRLSCAASGLIFLWYAMGWYRQAPGKERELVAAIRSSGDSTYYADSVKGRFTISRDNAKNTVYLQMNSLKPEDTAVYYCNRRKTNSRYDYCGQGTQVTVSS | low polyreactivity |
| QVQLVESGGGLVQAGGSLRLSCAASGRTFFVYDMGWYRQAPGKERELVAAISRGGSTNYADSVKGRFTISRDNAKNTVYLQMNSLKPEDTAVYYCAASVQYRRLKKFYYWGQGTQVTVSS | high polyreactivity |
| QLQLLESGGGIVQAGGILRLSCAASGFTFAHYAMGWYRQAPGIERELVAAITSRGGSTYYADSVKGRFTISRDNAKNPVYLQMNSLKPEDTAVYYCAAKTLLFIFGYWGQGTHVTVSS | high polyreactivity |
| QVQLVESGGGLVQAGGSLRLSCAASGSIFVGYAMGWYRQAPGKERELVAAINSSGDRTFYADSVKGRFTISRDNAKNTVYLQMNSLKREDTAVYYCNRVYVRAGVSVAYNYWGQGTQVTVSS | high polyreactivity |
| QAQLKDSCGGLVQAGGSLRLSCPASGNNTSEYYMGCCRQAPGKGREFVDAIDYGGTTNYADNVKGRFTISRDNAKNTVYLQMNSLRPEDTALYYCAASWDTIGLFAYWGQGSQVTVSS | high polyreactivity |
| QVQLVESGGGLVQAGGSLRLSCAASGFTYGSNAMGWYRQAPGKERELVATISRRGGRTYYADSVKGRFTISRDNAKNTVYLQMNSLKPEDTAVYYCAADRSRPGYDYWGQGTQVTVSS | high polyreactivity |
| QVQLVESGGGLVQAGGSLRLSCAASGRIFPYYAMGWYRPAPGKERELVATISTAGSTNYADSVKGRFTISRDNAKNTVYLQMKSLKPEDTAVYYCATRNTWYHRGYDYWGQGTQVTVSS | low polyreactivity |
| QVQLVESGGGLVQAGGSLRLSCAGSGSIFGEYVMGCYRQATVKERELVADISWRDGDTYYADSVKGRFTISRDNAKNTVYLQMNSLKPEDTAVYYFAADVIVPESYGYWPLSYYYLGQGTQVTVSS | low polyreactivity |
| QVQLVESGGGLVQAGGSLRLSCAASGSTFYDYAMGWYRQAPGKERELVASIDSGDSTNYADSVKGRFTISRDNAKNTVYLQMNSLKPEDTAVYYCAADYQNTGARYWYYYWGQGTQVTVSS | low polyreactivity |
| QVQLVESGGGLVQAGGSLRLSCAASGSTFPPYAMGWYRQAPGKERDLVADITRRGASTYYADSVKGRFTISRDNAKNTVYLQMNSLKPEDTAVYYCAARYYYQYYSGFDYWGQGTQVTVSS | high polyreactivity |
| QVQLVESGGGLVQAGGSLRLSCAASGRIFGYAMGWCRQAPRKERELVAAITSSGGRTYYADSVKGRFTISRDNAKNTVYLQMNSLKPEDTAVYYCAKKWPVYRSYDYWGQGTQVTVSS | high polyreactivity |
| QVQLVESVGGLVQAGGSLRLICAASGSIFDLNAMGWYRQAPGKEREFVAAISSGGGTYYADSVKGRFTISRDNAKNTVYLQKNSLKPEDTAVYYCAFELPELYYYFAYEYWGQGTQVTVSS | high polyreactivity |
| QVQLVESGGGLVQAGGSLRLSCAASGGTFNGNTMGWYRQAPGKERELVAVIDWSGGSTYYADSVKGRFTISRDNAKNTVYLQMNSLKPEDTAVYYYNADSDAQFREPKGLYYWGQGTQVTVSS | low polyreactivity |
| QVQLVESWGGLVQAGGSLRLSCAASGSTFDYNAMGWYRQAPGKERELVAAITSTGGNTYYADSVKGRFTISRDNAKNTVYLQMISMKPEDTAVYYCNKDVARYPYGKFDYWGQGTQVTVSS | low polyreactivity |
| QVQLVESGRGLVQAGGSLRLSCAASGSTLGVNAMGWYRQAPGKERELVAAISRSGTSTYYADSVKGRFTISRDNAKNTVYLQMNSLKPEDTAVYYCAAQYVIFGSRSRQFIEYEYWGQGTQVTVSS | high polyreactivity |
